Data set [1] has as its target T1, AT-ATA (WT-AT), (R)-selective amine transaminase (Aspergillus terreus, UniProt Q0C8G1).
T1 construct: gene ATEG_10023
T1 sequence (Q0C8G1 1-325): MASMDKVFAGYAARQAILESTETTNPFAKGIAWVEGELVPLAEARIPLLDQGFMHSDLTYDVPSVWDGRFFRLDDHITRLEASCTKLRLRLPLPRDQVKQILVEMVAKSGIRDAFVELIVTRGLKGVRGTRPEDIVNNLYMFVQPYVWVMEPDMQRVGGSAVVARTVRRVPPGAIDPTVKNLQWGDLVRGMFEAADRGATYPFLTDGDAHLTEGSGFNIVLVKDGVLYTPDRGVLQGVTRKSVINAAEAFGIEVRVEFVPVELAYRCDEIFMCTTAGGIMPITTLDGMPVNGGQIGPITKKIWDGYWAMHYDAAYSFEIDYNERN
Briefly: acetophenone formation at […] nm. The class given is biochemical. The note with it: 2.5 mM (R)-α-MBA, 0.1 mM PLP, 0.25% DMSO, 50 mM sodium phosphate pH 8.0; read-out: Km^pyruvate.

For another data set, the system named is C[C@@H](N)c1ccccc1. Nature of the data set: purified protein. The class given is biochemical, Aspergillus terreus. The note with it: 2.5 mM pyruvate, 0.1 mM PLP, 0.25% DMSO, 50 mM sodium phosphate pH 8.0.
The subject of the next data set is CC(=O)C(=O)O. Briefly: purified protein. Type of data set: biochemical, Aspergillus terreus. The note with it: 2.5 mM (R)-α-MBA, 0.1 mM PLP, 0.25% DMSO, 50 mM sodium phosphate pH 8.0.

Take `CC(=O)C(=O)O` [pyruvate]: in data set [1], the Km was found to be 230 ± 20 µM.
For “AT-ATA (WT-AT), (R)-selective amine transaminase (Aspergillus terreus NIH2624; L118A)”, in the data set with C[C@@H](N)c1ccccc1, the Km turned out to be 180 ± 10 µM, the kcat was determined as 1.46 ± 0.01 s⁻¹ and the kcat/Km amounted to 7930 M⁻¹ s⁻¹. For the same compound, in the data set on CC(=O)C(=O)O, the Km worked out at 360 ± 50 µM, the kcat turned out to be 1.48 ± 0.05 s⁻¹ and the kcat/Km came to 4150 M⁻¹ s⁻¹.
In the case of “AT-ATA (WT-AT), (R)-selective amine transaminase (Aspergillus terreus NIH2624; L118I)”, in the data set with C[C@@H](N)c1ccccc1, the Km is 130 ± 10 µM, the kcat amounted to 0.82 ± 0.01 s⁻¹ and the kcat/Km is 6400 M⁻¹ s⁻¹. Moreover, in the data set with CC(=O)C(=O)O, the Km came out at 280 ± 20 µM, the kcat was determined as 0.82 ± 0.01 s⁻¹ and the kcat/Km was 2950 M⁻¹ s⁻¹.
In the case of “AT-ATA (WT-AT), (R)-selective amine transaminase (Aspergillus terreus NIH2624; L118T)”, in the data set on C[C@@H](N)c1ccccc1, the Km amounted to 180 ± 10 µM, the turnover number (kcat) amounted to 1.79 ± 0.02 s⁻¹ and the specificity constant (kcat/Km) is 9980 M⁻¹ s⁻¹. Further, the Michaelis constant (Km) with CC(=O)C(=O)O came out at 400 ± 20 µM.
Turning to “AT-ATA (WT-AT), (R)-selective amine transaminase (Aspergillus terreus NIH2624; L118V)”, in the data set with C[C@@H](N)c1ccccc1, the Km came to 160 ± 10 µM, the kcat amounted to 0.57 ± 0.01 s⁻¹ and the kcat/Km is 3570 M⁻¹ s⁻¹. In the data set with CC(=O)C(=O)O, the Km amounted to 290 ± 20 µM, the kcat came to 0.51 ± 0.01 s⁻¹ and the kcat/Km is 1760 M⁻¹ s⁻¹.

Broadly, the Km is the substrate concentration at which the rate is half of its maximum. One may read the kcat as the number of substrate molecules converted per active site and unit of time at saturation. As a reminder, the kcat/Km is the second-order rate constant that governs catalysis at low substrate concentration.
